The source of these data is patent publication US20220332804A1 (CSL INNOVATION, published 2022).

Usually Kd stands for the equilibrium constant for the complex coming apart.

Test [1] concerns the target T1, human complement C2 (human, UniProt P06681 21-752).
T1 sequence: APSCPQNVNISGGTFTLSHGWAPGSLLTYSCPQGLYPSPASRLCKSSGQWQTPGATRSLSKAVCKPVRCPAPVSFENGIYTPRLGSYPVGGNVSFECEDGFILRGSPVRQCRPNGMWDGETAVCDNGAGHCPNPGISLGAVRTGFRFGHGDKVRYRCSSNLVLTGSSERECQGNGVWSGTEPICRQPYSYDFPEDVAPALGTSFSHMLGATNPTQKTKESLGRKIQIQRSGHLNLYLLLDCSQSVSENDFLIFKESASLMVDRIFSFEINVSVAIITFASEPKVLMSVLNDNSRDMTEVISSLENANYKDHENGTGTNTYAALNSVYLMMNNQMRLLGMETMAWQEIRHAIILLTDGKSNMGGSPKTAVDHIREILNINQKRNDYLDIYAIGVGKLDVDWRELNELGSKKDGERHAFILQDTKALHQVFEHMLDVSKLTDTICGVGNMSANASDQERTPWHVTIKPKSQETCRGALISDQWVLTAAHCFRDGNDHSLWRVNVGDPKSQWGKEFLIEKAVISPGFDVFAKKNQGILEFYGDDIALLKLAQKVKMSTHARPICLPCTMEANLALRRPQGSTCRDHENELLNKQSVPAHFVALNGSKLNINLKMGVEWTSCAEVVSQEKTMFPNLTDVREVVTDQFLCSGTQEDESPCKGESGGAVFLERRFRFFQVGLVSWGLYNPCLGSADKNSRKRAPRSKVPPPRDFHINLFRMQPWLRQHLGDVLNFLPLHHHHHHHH
The test is described as follows: cell-based or functional assay.

Test [2] concerns the target T2, cynomolgus monkey C2 (cynomolgus monkey, UniProt G8F3W0 21-752).
T2 sequence: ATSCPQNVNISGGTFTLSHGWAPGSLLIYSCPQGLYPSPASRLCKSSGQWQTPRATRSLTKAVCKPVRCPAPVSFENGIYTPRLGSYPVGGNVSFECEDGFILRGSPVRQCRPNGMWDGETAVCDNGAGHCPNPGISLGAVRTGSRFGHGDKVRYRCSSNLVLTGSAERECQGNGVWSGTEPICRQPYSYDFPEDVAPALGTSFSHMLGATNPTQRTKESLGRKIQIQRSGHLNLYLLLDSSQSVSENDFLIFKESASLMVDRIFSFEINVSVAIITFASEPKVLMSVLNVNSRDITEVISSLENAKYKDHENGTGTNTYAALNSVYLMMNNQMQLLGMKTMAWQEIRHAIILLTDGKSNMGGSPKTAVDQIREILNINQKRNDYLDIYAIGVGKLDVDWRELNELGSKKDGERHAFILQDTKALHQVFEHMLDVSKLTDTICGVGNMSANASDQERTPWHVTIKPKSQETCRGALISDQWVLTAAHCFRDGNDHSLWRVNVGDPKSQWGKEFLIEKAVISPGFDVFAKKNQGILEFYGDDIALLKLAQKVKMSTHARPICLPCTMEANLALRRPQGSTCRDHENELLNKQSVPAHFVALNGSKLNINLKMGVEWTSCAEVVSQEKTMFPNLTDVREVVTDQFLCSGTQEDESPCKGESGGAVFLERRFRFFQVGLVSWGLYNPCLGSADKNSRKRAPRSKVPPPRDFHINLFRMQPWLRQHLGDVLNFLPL
Put plainly: cell-based or functional assay.

The target of test [3] is T1, human complement C2. The test is described as follows: cell-based or functional assay. This is another data set of the same source.
For test [4], the target named is T2, cynomolgus monkey C2. The test is described as follows: cell-based or functional assay. This is another data set of the same source.
For test [5], the target named is T2, cynomolgus monkey C2. Put plainly: SPR, mAb captured, cyno C2 analyte, pH 6.0. A general note: In SPR one partner is held on a chip, and binding of the other changes the refractive index at the surface.
Experimental: (§1) Surface plasmon resonance (SPR, Biacore) was used for all binding affinity analyses. In brief, goat anti-human IgG was directly immobilised onto the carboxymethyl dextran surface of CM5 sensorchips to approximately 12,000 RU using standard NHS/EDC chemistry at pH 5. The immobilised antibody surface was pre-conditioned with ten injections of polyclonal human IgG (Privigen 60 s) prepared at 1 μg/mL. Ligands (anti-C2 mAbs) were captured at the beginning of each cycle as described below. An adjacent spot or flow cell in which only Polyclonal IgG was capture was used as a reference surface. The goat anti-human IgG Fc antibody surface was regenerate in 100 mM H3PO4, injected for 45 seconds at the end of each cycle. Experiments were performed at 37° C. and the flow rate of each experiment was kept constant at 30 μL/min.
(§2) In addition to human C2, the pH dependent anti-C2 antibodies were also tested for their ability to bind to C2 from other mammalian species using the SPR methods described above in order to identify suitable surrogate species for in vivo testing. The antibodies were tested for binding at neutral pH against C2 from cynomolgus monkeys, mice, dogs, rabbits, rats, pigs, and sheep.
Test [6] addresses T2, cynomolgus monkey C2. The test is described as follows: SPR, mAb captured, cyno C2 analyte, pH 7.3.
Experimental: as §1, §2
Test [7] concerns the target T1, human complement C2. Put plainly: SPR, mAb captured, C2 analyte, HBS-EP, pH 6.0.
Experimental: as §1
(§3) The pH dependent anti-C2 antibodies and their germlined versions were tested for their affinity to C2 at pH 7.3 (neutral pH) and pH 6.0 (early endosome pH) using the SPR methods described above in HBS-EP buffer.
Test [8] deals with T1, human complement C2. The test is described as follows: SPR, mAb captured, C2 analyte, HBS-EP, pH 7.3.
Experimental: as §1, §3
The target of another test is T3, mouse C2 (mouse, UniProt P21180 19-760, limits assumed).
T3 sequence (looked up): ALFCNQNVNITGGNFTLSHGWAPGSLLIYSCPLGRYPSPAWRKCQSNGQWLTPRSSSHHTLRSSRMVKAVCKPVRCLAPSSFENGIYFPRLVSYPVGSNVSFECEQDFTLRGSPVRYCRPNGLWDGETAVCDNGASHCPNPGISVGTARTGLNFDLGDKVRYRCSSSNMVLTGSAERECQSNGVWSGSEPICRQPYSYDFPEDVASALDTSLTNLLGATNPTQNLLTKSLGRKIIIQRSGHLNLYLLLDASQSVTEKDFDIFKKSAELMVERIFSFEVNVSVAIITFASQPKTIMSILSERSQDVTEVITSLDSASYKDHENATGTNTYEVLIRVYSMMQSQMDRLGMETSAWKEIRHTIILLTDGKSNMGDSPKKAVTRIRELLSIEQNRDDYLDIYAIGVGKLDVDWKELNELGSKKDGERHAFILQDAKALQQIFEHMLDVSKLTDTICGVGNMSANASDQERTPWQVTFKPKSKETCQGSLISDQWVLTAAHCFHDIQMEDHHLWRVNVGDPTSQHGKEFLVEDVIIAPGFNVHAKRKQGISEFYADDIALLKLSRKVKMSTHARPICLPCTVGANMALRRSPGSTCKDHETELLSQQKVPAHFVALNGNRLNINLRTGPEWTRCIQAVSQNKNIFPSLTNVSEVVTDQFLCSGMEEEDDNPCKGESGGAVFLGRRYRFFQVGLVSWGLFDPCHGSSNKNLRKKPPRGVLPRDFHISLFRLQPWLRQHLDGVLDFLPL
The test is described as follows: SPR, mouse C2, pH 7.3; VWB = very weak binding, KD not determined.

The target in test [9] is T1, human complement C2. The test is described as follows: SPR, mAb captured, C2 analyte, MHAs buffer, pH 7.3.
Experimental: as §1
(§4) This buffer contains ammonium sulfate instead of sodium chloride.
The target of test [10] is T1, human complement C2. The test is described as follows: SPR, mAb captured, C2 analyte, MHAs buffer, pH 5.8, steady state.
Experimental: as §1, §4
The target in test [11] is T1, human complement C2. The test is described as follows: SPR, mAb captured, C2 analyte, MHAs buffer, pH 6.0, steady state.
Experimental: as §1, §4

B1: RF16-191G (antibody, V domains shown)
VH: EVQLLESGGGLVQPGGSLRLSCAASGFTFSKYWMGWVRQAPGKGLEWVSSIYSSGGWTYYADSVKGRFTISRDNSKNTLYLQMNSLRAEDTAVYYCARRPRSFSGSYYRAFDIWGQGTMVTVSS
VL: DIQMTQSPSSLSASVGDRVTITCRASQSITDYLNWYQQKPGKAPKLLIYAASSLQSGVPSRFSGSGSGTDFTLTISSLQPEDFATYYCQQSYSSSITFGQGTRLDLKR
On to B1, for which, in the test with human complement C2 [1], the “IC50, inhibition of human classical complement pathway (Wieslab assay)” value came to 1.64 nM. Also, the “IC50, inhibition of human lectin complement pathway (Wieslab assay)” value in the test with human complement C2 [1] came out at 1.62 nM. Also, the “IC50, inhibition of cynomolgus classical complement pathway (Wieslab assay)” value in the test with cynomolgus monkey C2 [2] was 8.73 nM. Moreover, the “IC50, inhibition of cynomolgus lectin complement pathway (Wieslab assay)” value with cynomolgus monkey C2 [2] was 42.9 nM. For the same molecule, in the test with human complement C2 [3], the “IC50, inhibition of human classical pathway (hemolysis assay)” value worked out at 94 nM. Also, the “IC50, inhibition of cyno classical pathway (hemolysis assay)” value with cynomolgus monkey C2 [4] turned out to be 213 nM. In addition, the Kd with cynomolgus monkey C2 [5] was found to be 87.3 nM; with cynomolgus monkey C2 [6], 35.7 nM; in the test with human complement C2 [7], 13 nM; with human complement C2 [8], 18.9 nM. Besides, the binding result in the test with mouse C2 is “binds”.

B2: RF16-242 (antibody, V domains shown)
VH: EVQLLQSGAEVKKPGESLKISCKGSGYSFTSYWIGWVRQMPGKGLEWMGIIYPGDSDTRYSPSFQGQVTISADKSISTAYLQWSSLKASDTAMYYCARRGHYGDYFDYWGQGTLVTVSS
VL: SYELTQPPSVSVSPGQTARITCSGDALPKKYAYWYHQKSGQAPVLVIYEDRRRPSEIPERFSGSSSGTMATLTITGAQVEDEGVYFCYSRDRAGNQRVFGGGTQLTVLG
B2: the “IC50, inhibition of human classical complement pathway (Wieslab assay)” value with human complement C2 [1] is 9.19 nM. Moreover, in the test with human complement C2 [1], the “IC50, inhibition of human lectin complement pathway (Wieslab assay)” value was 2.91 nM. Moreover, in the test with cynomolgus monkey C2 [2], the “IC50, inhibition of cynomolgus classical complement pathway (Wieslab assay)” value turned out to be 8.97 nM. Besides, in the test with cynomolgus monkey C2 [2], the “IC50, inhibition of cynomolgus lectin complement pathway (Wieslab assay)” value was 91.1 nM. In the test with human complement C2 [3], the “IC50, inhibition of human classical pathway (hemolysis assay)” value is 55.4 nM. Further, in the test with cynomolgus monkey C2 [4], the “IC50, inhibition of cyno classical pathway (hemolysis assay)” value was 642 nM. Also, the Kd with cynomolgus monkey C2 [5] came out at 134 nM; with cynomolgus monkey C2 [6], 5.2 nM; with human complement C2 [7], 16 nM; with human complement C2 [8] it was 7 nM; with human complement C2 [9], 460 nM; with human complement C2 [10] it was 32000 nM. In the test with human complement C2 [11], the Kd is 11600 nM.

B3: RF16-226G (antibody)
heavy: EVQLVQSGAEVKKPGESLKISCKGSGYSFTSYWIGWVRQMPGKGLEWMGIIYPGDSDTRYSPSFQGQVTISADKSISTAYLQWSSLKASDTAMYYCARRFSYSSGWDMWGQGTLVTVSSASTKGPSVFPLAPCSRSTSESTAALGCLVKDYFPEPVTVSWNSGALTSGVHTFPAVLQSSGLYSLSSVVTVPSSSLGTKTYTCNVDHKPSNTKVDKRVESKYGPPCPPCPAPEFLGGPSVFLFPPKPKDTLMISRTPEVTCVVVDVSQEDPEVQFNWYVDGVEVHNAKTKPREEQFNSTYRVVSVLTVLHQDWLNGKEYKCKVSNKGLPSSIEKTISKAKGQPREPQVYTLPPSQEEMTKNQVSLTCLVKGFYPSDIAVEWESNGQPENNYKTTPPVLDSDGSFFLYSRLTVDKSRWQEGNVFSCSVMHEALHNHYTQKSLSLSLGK
light: SYELTQPPSVSVSPGQTARITCSGDALTSKYVAWYQQKSGQAPVLVIYEDTRRPSGIPERFSGSSSGTMATLTISGAQVEDEADYYCYSTDASGHQRVFGGGTKLTVLGQPKAAPSVTLFPPSSEELQANKATLVCLISDFYPGAVTVAWKADSSPVKAGVETTTPSKQSNNKYAASSYLSLTPEQWKSHRSYSCQVTHEGSTVEKTVAPTECS
With B3, the “IC50, inhibition of human classical complement pathway (Wieslab assay)” value in the test with human complement C2 [1] amounted to 5.58 nM. For the same molecule, the “IC50, inhibition of human lectin complement pathway (Wieslab assay)” value with human complement C2 [1] came to 3.25 nM. For the same molecule, in the test with cynomolgus monkey C2 [2], the “IC50, inhibition of cynomolgus classical complement pathway (Wieslab assay)” value amounted to 8.24 nM. Further, the “IC50, inhibition of cynomolgus lectin complement pathway (Wieslab assay)” value in the test with cynomolgus monkey C2 [2] was determined as 66.5 nM. Further, in the test with human complement C2 [3], the “IC50, inhibition of human classical pathway (hemolysis assay)” value is 230 nM. The “IC50, inhibition of cyno classical pathway (hemolysis assay), mean of three experiments” value in the test with cynomolgus monkey C2 [4] is 176 nM. Moreover, the Kd with cynomolgus monkey C2 [5] came out at 114 nM; with cynomolgus monkey C2 [6], 4.7 nM; in the test with human complement C2 [7], 128 nM; with human complement C2 [8] it was 10 nM; with human complement C2 [9] it was 45.6 nM; with human complement C2 [10], 4060 nM. Moreover, the Kd in the test with human complement C2 [11] was determined as 1900 nM. For the same molecule, the binding result in the test with mouse C2 is listed as “binds”.

B4: RF16-203G (antibody, V domains shown)
VH: EVQLLESGGGLVQPGGSLRLSCAASGFTFSRYYMMWVRQAPGKGLEWVSSIGSSGGTTNYADSVKGRFTISRDNSKNTLYLQMNSLRAEDTAVYYCAKGGMVLGVVNIWGQGTLVTVSS
VL: SYELTQPPSVSVSPGQTASITCSGDKLGEKYVSWYQQKPGQSPVLVIYQDIKRPSGIPERFSGSNSGNTATLTISGTQAMDEADYYCQTWGTGGIQVFGGGTKLTVLG
B4: in the test with human complement C2 [1], the “IC50, inhibition of human classical complement pathway (Wieslab assay)” value amounted to 2030 nM and the “IC50, inhibition of human lectin complement pathway (Wieslab assay)” value was found to be 33.2 nM. In addition, in the test with cynomolgus monkey C2 [2], the “IC50, inhibition of cynomolgus classical complement pathway (Wieslab assay)” value came to 14100 nM and the “IC50, inhibition of cynomolgus lectin complement pathway (Wieslab assay)” value worked out at 5780 nM. Besides, the Kd with cynomolgus monkey C2 [6] came to 485 nM. In addition, the affinity with human complement C2 [8], expressed as Kd, was 506 nM. Moreover, the binding result with mouse C2 is “binds”.

B5: RF16-214G (antibody, V domains shown)
VH: EVQLLESGGGLVQPGGSLRLSCAASGFTFSWYQMMWVRQAPGKGLEWVSRIYPSGGGTAYADSVKGRFTISRDNSKNTLYLQMNSLRAEDTAVYYCARDAGYGDNWGQGTLVTVSS
VL: SYELTQPPSVSVSPGQTASITCSGDKLGEKYASWYQQKPGQSPVLVIYQDRKRPSGIPERFSGSNSGNTATLTISGTQAMDEADYYCQAWDTRAVVFGGGTKLTVLG
Regarding B5, the “IC50, inhibition of human classical complement pathway (Wieslab assay)” value in the test with human complement C2 [1] was determined as 20.3 nM. In the test with human complement C2 [1], the “IC50, inhibition of human lectin complement pathway (Wieslab assay)” value was determined as 6.4 nM. The “IC50, inhibition of cynomolgus classical complement pathway (Wieslab assay)” value in the test with cynomolgus monkey C2 [2] worked out at 135 nM. The “IC50, inhibition of cynomolgus lectin complement pathway (Wieslab assay)” value in the test with cynomolgus monkey C2 [2] was 223 nM. For the same molecule, the “IC50, inhibition of human classical pathway (hemolysis assay)” value with human complement C2 [3] is 337 nM. For the same molecule, the “IC50, inhibition of cyno classical pathway (hemolysis assay)” value in the test with cynomolgus monkey C2 [4] is 396 nM. The Kd in the test with cynomolgus monkey C2 [5] is 111 nM; in the test with cynomolgus monkey C2 [6], 41.5 nM; with human complement C2 [7] it was 53.9 nM; in the test with human complement C2 [8] it was 25.1 nM; in the test with human complement C2 [9], 176 nM; in the test with human complement C2 [10] it was 3340 nM. In the test with human complement C2 [11], this molecule had a Kd of 1480 nM. Moreover, the binding result with mouse C2 is “binds”.
